Data reported in patent US11781164B2, “Demethylation of reticuline and derivatives thereof with fungal cytochrome P450” (priority 2017, dated 2023).

Assays:
[1] = test system: Cunninghamella echinulata ATCC 9244; assay: Fungal bioconversion of thebaine to northebaine by Cunninghamella echinulata cultures; assay type: cell-based; details: 0.5 mg/ml thebaine added after 48 h of growth; eleven days after thebaine addition; supernatant, LC-MS
Description: (§1) Cunninghamella echinulata ATCC 9244 was propagated on potato dextrose agar at room temperature. Mature cultures on plates (7-10 days) were used for the preparation of concentrated spore suspensions. Spores were harvested by flooding the lawn culture with a sterile solution containing 0.9% sodium chloride and 0.01% Tween 80 (10 ml/plate), scratching them from the hyphae with the aid of a sterile loop and filtering the suspension through sterile cotton to remove hyphal fragments. Thamnostylum piriforme ATCC 8992 was propagated on malt extract agar (CM0059) at room temperature and spore suspensions were prepared as indicated above. […]
(§2) Media was inoculated with 0.25 ml of freshly-prepared spore suspensions. […] Eleven days after thebaine addition, supernatants were collected and analyzed by LC-MS. […] Thebaine and northebaine were monitored in the supernatants, reaching a conversion level of 25% on day 12 after substrate addition (FIG. 2).

[2] = test system: Thamnostylum piriforme ATCC 8992; assay: Fungal bioconversion of thebaine to northebaine by Thamnostylum piriforme cultures; assay type: cell-based
Description: as §1, §2

thebaine [3] = assay: Conversion of thebaine by demethylases heterologously expressed in Aspergillus nidulans; details: 0.5 mM thebaine, Minimal Medium pH 7, 84 hours; supernatant, LC-MS
thebaine [4] = assay: In planta conversion of thebaine by transient expression of demethylases and CPRs in Nicotiana benthamiana leaves; details: co-expressed with CPR_DN10898_c0_g1_i1_co or Cel_CPR_co; leaves re-infiltrated with 0.5 mM thebaine after 4 days, measured 1 day after
thebaine [5] = assay: Bioconversion of thebaine (N-demethylation to northebaine) by S. cerevisiae expressing cytochrome P450s and CPRs, LC-MS; details: 0.5 mM thebaine
oripavine [6] = assay: Bioconversion of oripavine (N-demethylation to nororipavine) by S. cerevisiae expressing cytochrome P450s and CPRs, LC-MS; details: 0.5 mM oripavine, pH 7, 72 h; co-expressed with native or codon-optimized T. piriforme CPRs or Cel_CPR
salutaridine = assay: In vitro N-demethylation of salutaridine by mammalian cytochrome P450s in crude yeast cell lysates; details: crude cell extract with human CPR and cytochrome b5; 0.2 mM substrate, pH 7, 30° C., approximately 20 hours; compared to negative control strain without cytochrome P450s
salutaridinol = assay: In vitro N-demethylation of salutaridinol by mammalian cytochrome P450s in crude yeast cell lysates; details: crude cell extract with human CPR and cytochrome b5; 0.2 mM substrate, pH 7, 30° C., approximately 20 hours; compared to negative control strain without cytochrome P450s
thebaine [7] = assay: In vitro N-demethylation of thebaine by mammalian cytochrome P450s in crude yeast cell lysates; details: crude cell extract with human CPR and cytochrome b5; 0.2 mM substrate, pH 7, 30° C., approximately 20 hours; compared to negative control strain without P450s
oripavine [8] = assay: In vitro N-demethylation of oripavine by mammalian cytochrome P450s in crude yeast cell lysates; details: crude cell extract with human CPR and cytochrome b5; 0.2 mM substrate, pH 7, 30° C., approximately 20 hours; compared to negative control strain without cytochrome P450s
codeine = assay: In vitro N-demethylation of codeine by mammalian cytochrome P450s in crude yeast cell lysates; details: crude cell extract with human CPR and cytochrome b5; 0.2 mM substrate, pH 7, 30° C., approximately 20 hours; compared to negative control strain without cytochrome P450s
[9] = pH 7, co-expressed with Cel_CPR_co, 72 h

`COC1=CC=C2[C@H]3Cc4ccc(OC)c5c4[C@@]2(CCN3C)[C@H]1O5` [Thebaine, thebaine] was tested, and the “conversion of thebaine to northebaine” value [1] was 6%, the “conversion of thebaine to northebaine” value ([2]; 0.5 mg/ml thebaine added after 48 h of growth, eleven days after thebaine addition, supernatant, LC-MS) was 16% and the “conversion level of thebaine to northebaine” value ([2]; new T. piriforme cultures, day 12 after substrate addition) was 25%.

B1: Lr_P450_co: P450 from Lichtheimia ramosa, codon optimized for S. cerevisiae (protein, listed as Lichtheimia ramosa)
chain: MTEIKEHIYRYRHYIGVAAAVALVCQQVYYRIFRIPKNLRHIPAIPYGQQLKALRSDEALTSRTKRLVFPLLSKCNGVYLNRMPFKWTIYVADPEIARAILFKPEFGHKTRSVTDSLDKNSSLFEFVGDDNIAIVNGHEWKEQRKIMNPAFHRATPVGMFGSLMPKVFRLVEEQPTLPALDLMQKLTLDALGKSVFGFEFGALDDPDSVWVKTYRQVFDSFTDVFSLVFPRLDPIYRYFSAKHREQYNAVYKLIDLLDGMADKKRSMLQDASNSDIKDVPDHEKDLLQLMLEAELRGEGSWTKRELRHNMAIFFVAGQDTTSHALTFCLYLLAKNQDIQKKAREEILNVFGDEPKDVFPTLEDCKKLNYLDMVIKESMRIYPPANDVLARDVNEDLNVKGVFIPKGSMVSVDIHALHHRPDLWHEPDKFNPDRFLPGGEHDSHVGVTYAPFSSGSRQCIALKFATMQQRVVLSMLLRKYEWELPKDSKHKDSIQFQIPFNIAPKDLELTFHKRY
modifications: codon-optimized
For B1, the “northebaine production in Aspergillus nidulans vs vector control” value (thebaine [3]) was “not apparent”, the “northebaine levels in N. benthamiana leaves vs negative P19 control” value (thebaine [4]) was “clear increase in northebaine” and the “activity towards thebaine, converting it to northebaine” value (thebaine [5]; pH 7, 72 h, co-expressed with CPR_DN5866_c0_g1_i1_Cd9, CPR_DN10898_c0_g1_i1_1A or Cel_CPR_co (at least one of the tested CPRs)) was “performing the best conversion of thebaine into northebaine”. The northebaine titer (thebaine [5]; [9]) was “more than 7 mg/L” and the “northebaine titers higher compared to P450_DN15259_co” value (thebaine [5]; [9]) was 2 fold.

B2: Mc_S2JT25_co: codon-optimized cytochrome P450 S2JT25 from Mucor circinelloides (protein)
chain: MTLIASYNQTLLERVISVVRKNKTSYIGMAILCVVLQQVYASFTVPPKYLRRYPTVSFFEMMKSFYRKESVLNRNKRLVTPLTNAGHGFYVCRIPLDWTIYVTDPIAAKTLLLKTDNFPKSHAIFGALGESSPAVKFMGSENVAVSNGEMWKKQRKIMNPAFHRSQPVKLFGGVMPDLFALIDQDPEHVFVAPRMKSFALDALGLSAFGFDFQSLKGDPEGWTSKYNTVISTLFNPFINLFAKYDFLIKYISPERRRVIKATDEFNVMLSNLADKRRQEILDGEKKDMAENEKDLLTLMIEADIREGVETTTTELRHNMAIFFLAGHDTTANTLALCLYQLAKHKHVQKKARQEVLDILGDDPCDVTPTLEDLKKLNYVNMVIKENLRRNSPVDNLMARDTHQDIDLNGTFIPKGSKVTVNVASIHLNPKIWHDPESFIPERFEPGGEYDGHDGFTWIPFSNGSRQCLGLNFSLTEQRVVLCMLLKRYEIEIPKDSIHYNEIVFDKPFTFAPQSLELSFKKRY
modifications: codon-optimized; Mucor circinelloides
For B2, the “amount of nororipavine compared to Lr_P450_co” value (oripavine [6]) was “resulted in the highest amount of nororipavine”, the “northebaine production in Aspergillus nidulans vs vector control” value (thebaine [3]) was “production of northebaine was achieved” and the “northebaine levels in N. benthamiana leaves vs negative P19 control” value (thebaine [4]) was “clear increase in northebaine”. For the same molecule, the “northebaine amount compared to Lr_P450_co” value (thebaine [5]; pH 7, 72 h, co-expressed with native or codon-optimized T. piriforme CPRs or Cel_CPR) was “yielded the highest northebaine amount”.

B3: Hs_CYP2C8: Cytochrome P450 2C8 (P10632), Homo sapiens (protein, UniProt P10632 1-490, looked up)
Cytochrome P450 2C8: MEPFVVLVLCLSFMLLFSLWRQSCRRRKLPPGPTPLPIIGNMLQIDVKDICKSFTNFSKVYGPVFTVYFGMNPIVVFHGYEAVKEALIDNGEEFSGRGNSPISQRITKGLGIISSNGKRWKEIRRFSLTTLRNFGMGKRSIEDRVQEEAHCLVEELRKTKASPCDPTFILGCAPCNVICSVVFQKRFDYKDQNFLTLMKRFNENFRILNSPWIQVCNNFPLLIDCFPGTHNKVLKNVALTRSYIREKVKEHQASLDVNNPRDFIDCFLIKMEQEKDNQKSEFNIENLVGTVADLFVAGTETTSTTLRYGLLLLLKHPEVTAKVQEEIDHVIGRHRSPCMQDRSHMPYTDAVVHEIQRYSDLVPTGVPHAVTTDTKFRNYLIPKGTTIMALLTSVLHDDKEFPNPNIFDPGHFLDKNGNFKKSDYFMPFSAGKRICAGEGLARMELFLFLTTILQNFNLKSVDDLKNLNTTAVTKGIVSLPPSYQICFIPV
In the case of B3, the “in vitro N-demethylation activity on salutaridine” value (salutaridine) is reported as “detected”, the “in vitro N-demethylation activity on salutaridinol” value (salutaridinol) is reported as “detected” and the “in vitro N-demethylation activity on Thebaine” value (thebaine [7]) is reported as “detected”. For the same molecule, the “in vitro N-demethylation activity on oripavine” value (oripavine [8]) was “detected” and the “in vitro N-demethylation activity on codeine” value (codeine) was “detected”.
